Our source for the stoichiometry N values is paper PMC5431965.

Assay [1] concerns the target HydF V261C mutant (cysteine-less background), spin labeled with MTSSL (Thermotoga neapolitana). Nature of the assay: PELDOR (DEER) pulse EPR; distances between spin labels on the two monomers; protein about 150 uM in deuterated buffer with 33% v/v deuterated glycerol, quickly frozen, Q-band, 50 K; without and with 10 mM GTP.
Assay [2] has as its target HydF, wild type recombinant, Thermotoga neapolitana (Thermotoga neapolitana). Nature of the assay: SEC; Superdex 200 GL 10 300 in 25 mM Tris-HCl pH 8.0, 200 mM KCl, 1 mM MgCl2; column calibrated with molecular weight standards.

In assay [1], “HydF V261C mutant (cysteine-less background), spin labeled with MTSSL (natural protein)” gave a stoichiometry N of 2. In the case of “HydF, wild type recombinant, Thermotoga neapolitana (natural protein)”, in assay [2], the stoichiometry N came to 2.
